Measurements as given in paper PMC9242475.

How the values were obtained:
[1] = molecular target: HAdV-D37 protein IIIa tagged with C-terminal 3X FLAG (human adenovirus D type 37 (HAdV-D37)); assay: SPR; […] (80 nM or 2.5 nM) […]
[2] = molecular target: HAdV-D37 protein IIIa tagged with C-terminal 3X FLAG (human adenovirus D type 37 (HAdV-D37)); assay: SPR; BIAcore T200, 25°C, […] (25 mM HEPES, 150 mM NaCl, 0.05% P20, 2 mM DTT, pH 7.4); […]; 1:1 binding model

Chain of partial recombinant RANBP2 protein (#ab268915, Abcam) (domain or fragment) (P49792 1346-1815): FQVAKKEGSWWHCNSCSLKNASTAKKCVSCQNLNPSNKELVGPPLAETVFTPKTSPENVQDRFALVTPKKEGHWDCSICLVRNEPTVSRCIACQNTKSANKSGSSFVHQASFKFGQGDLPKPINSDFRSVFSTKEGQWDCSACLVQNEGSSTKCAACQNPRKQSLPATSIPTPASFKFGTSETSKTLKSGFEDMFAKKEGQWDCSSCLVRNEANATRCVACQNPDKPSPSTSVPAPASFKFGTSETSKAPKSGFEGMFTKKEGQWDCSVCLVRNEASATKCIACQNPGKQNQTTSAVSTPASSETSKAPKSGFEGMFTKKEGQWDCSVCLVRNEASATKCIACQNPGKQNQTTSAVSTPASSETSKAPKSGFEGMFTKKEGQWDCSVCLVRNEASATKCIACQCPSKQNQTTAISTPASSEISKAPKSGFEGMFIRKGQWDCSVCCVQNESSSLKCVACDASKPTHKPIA

Row | Substance | Kd [1] [nM] | Kd [2] [nM] | koff [2] [s⁻¹] | kon [2] [M⁻¹ s⁻¹]
1 | recombinant USP9X protein (#ab271784, Abcam) (from UniProt Q93008 1-2554) (enzyme) | 1.8 | 32 | 0.00119 | 37200
2 | partial recombinant RANBP2 protein (#ab268915, Abcam) (domain or fragment) | 122 | 13.7 | 0.000658 | 48000
